# Measured values as given in patent US7862994.
# Biological target: human CD4 on the surface of cells (HeLa-CD4+, C8166, PM1, primary human CD4+ T lymphocytes) (human) (UniProt P01730)
# Assay: cell-based or functional assay
substance,measurement,value
HIV-1JR-FL gp120/gp41 expressed on HeLa cells (HeLa-envJR-FL+),"% RET, fusion of HeLa-envJR-FL+ with PM1 cells, no inhibitor",7.5 % RET
HIV-1LAI gp120/gp41 expressed on HeLa cells (HeLa-envLAI+) (from UniProt P03377 33-861; P03377 33-861),"% RET, fusion of HeLa-envLAI+ with C8166 cells, no inhibitor",13 % RET
same,"% RET, fusion of HeLa-envLAI+ with HeLa-CD4+ cells, no inhibitor",7.3 % RET
"OKT4 (mouse monoclonal antibody that binds CD4, Ortho Diagnostic Systems)","% inhibition of RET at 0.2 µg/ml, HeLa-env+ + HeLa-CD4+ cells, cuvette method",0%
same,"% inhibition of RET at 2.0 µg/ml, HeLa-env+ + HeLa-CD4+ cells, cuvette method",0%
"murine MAb OKT4a (anti-CD4 monoclonal antibody, Ortho Diagnostic Systems)","% Inhibition of RET, fusion of HeLa-envJR-FL with LW5 primary CD4+ T cells, OKT4A at 3 ug/ml",100%
same,"% Inhibition of RET, fusion of HeLa-envLAI with LW5 primary CD4+ T cells, OKT4A at 3 ug/ml",100%
same,"% RET, fusion of HeLa-envJR-FL+ with PM1 cells in the presence of OKT4A (0.3 µg/ml)",0.7 % RET
same,"% RET, fusion of HeLa-envLAI+ with C8166 cells in the presence of OKT4A (0.3 µg/ml)",0.6 % RET
same,"% RET, fusion of HeLa-envLAI+ with HeLa-CD4+ cells in the presence of OKT4A (0.3 µg/ml)",0.4 % RET
same,"% inhibition of RET at 0.2 µg/ml, HeLa-env+ + HeLa-CD4+ cells, cuvette method",65%
